Results from the RNAGym collection of RNA variant scans (doi:10.7554/elife.80360).

B1: Hairpin Ribozyme (parent)
chain: GUCCUCUUUCACGUGCGCGUGAAAGAGAGAAGUGAACCAGAGAAACACACGUUGUGGUAUAUUACCUGGUA

Variants of: B1
Test: self-cleavage, relative activity (ratio to wild type); higher = more cleavage; co-transcriptional

Row | Variant | self-cleavage
1 | GUCUUCUUUCACGUGCGCGUGAAAGAGAGAAGUGAACCAGAGAAACACACGUUGAGGUAUAUUACCUGGUA [C4U U55A] | 0.0732
2 | GUCUUCUUUCACGUGCGCGUGAAAGAGAGAAGUGAACCAGAGAAACACACGGUGUGGUAUAUUACCUGGUA [C4U U52G] | 0.209
3 | GUCUUCUUUCACGUGCGCGUGAAAGAGAGAAGUGAACCAGAGAAACACACGCUGUGGUAUAUUACCUGGUA [C4U U52C] | 0.481
4 | GUCUUCUUUCACGUGCGCGUGAAAGAGAGAAGUGAAACAGAGAAACACACGUUGUGGUAUAUUACCUGGUA [C4U C37A] | 0.158
5 | GUCUUCUUGCACGUGCGCGUGAAAGAGAGAAGUGAACCAGAGAAACACACGUUGUGGUAUAUUACCUGGUA [C4U U9G] | 0.178
6 | GUCCACUUUCACGUGCGCGUGAAAGAGAGAAGUGAACCAGAGAAACCCACGUUGUGGUAUAUUACCUGGUA [U5A A47C] | 0.187
7 | GUCCACUUUCACGUGCGCGUGAAAGAGAGAAGUGAACCAGAGAAACGCACGUUGUGGUAUAUUACCUGGUA [U5A A47G] | 0.102
8 | GUCCACUUUCACGUGCGCGUGAAAGAGAGAAGUGAACCAGAGAAACUCACGUUGUGGUAUAUUACCUGGUA [U5A A47U] | 0.0694
9 | GUCUUCUUUCACGUGCGCGUGAAAGAGAGAAGUGAACCAGAGAAACACACGUUGUGGUAUAUGACCUGGUA [C4U U63G] | 0.103
10 | GUCCACUUUCACGUGCGCGUGAAAGAGAGAAGUGAACCUGAGAAACACACGUUGUGGUAUAUUACCUGGUA [U5A A39U] | 0.0927
11 | GUCCACUUUCACGUGCGCGUGAAAGAGAGAAGUGAACCGGAGAAACACACGUUGUGGUAUAUUACCUGGUA [U5A A39G] | 0.101
12 | GUCUACUUUCACGUGCGCGUGAAAGAGAGAAGUGAACCAGAGAAACACACGUUGUGGUAUAUUACCUGGUA [C4U U5A] | 0.0527
13 | GUCUUCUUUCACGUGCGCCUGAAAGAGAGAAGUGAACCAGAGAAACACACGUUGUGGUAUAUUACCUGGUA [C4U G19C] | 0.219
14 | GUCUUCUUUCACGUGCGCAUGAAAGAGAGAAGUGAACCAGAGAAACACACGUUGUGGUAUAUUACCUGGUA [C4U G19A] | 0.327
15 | GUCUUCUUUCACGUGCGCGUGAAAGAGAGAAGUGAACGAGAGAAACACACGUUGUGGUAUAUUACCUGGUA [C4U C38G] | 0.0751
16 | GUCUUCUUUCACGUGCGCGUGAAAGAGAGAAGUGAACAAGAGAAACACACGUUGUGGUAUAUUACCUGGUA [C4U C38A] | 0.13
17 | GUCUUCUUUCACGUGCGCGGGAAAGAGAGAAGUGAACCAGAGAAACACACGUUGUGGUAUAUUACCUGGUA [C4U U20G] | 0.213
18 | GUCUUCUUUCACGUGCACGUGAAAGAGAGAAGUGAACCAGAGAAACACACGUUGUGGUAUAUUACCUGGUA [C4U G17A] | 0.263
19 | GUCCACUUUCACGUGCGCGUGAAAGCGAGAAGUGAACCAGAGAAACACACGUUGUGGUAUAUUACCUGGUA [U5A A26C] | 0.491
20 | GUCCACUUUCACGUGCGCGUGAAAGAGAGAAGUGAGCCAGAGAAACACACGUUGUGGUAUAUUACCUGGUA [U5A A36G] | 0.427
21 | GUCUUCUUUCACGUGCGCGUGAAAGAGAGAAGUGAACCAGAGAAAAACACGUUGUGGUAUAUUACCUGGUA [C4U C46A] | 0.164
22 | GUCUUCUUUCACGUGCGCGUGAAAGAGAGAAGUGAACCAGAGAAAGACACGUUGUGGUAUAUUACCUGGUA [C4U C46G] | 0.121
23 | GUCUUCUUUCACGUGCGCGUGAAAGAGAGAAGUGAACCAGAGAAACACACGUUGUGGUAUAUUACGUGGUA [C4U C66G] | 0.217
24 | GUCUUCUUUCACGUGCGCGUGAAAGAGAGAAGUGAACCAGAGAAACACACGUUGUGGUAUAUUACAUGGUA [C4U C66A] | 0.182
25 | GUCUUCUUUAACGUGCGCGUGAAAGAGAGAAGUGAACCAGAGAAACACACGUUGUGGUAUAUUACCUGGUA [C4U C10A] | 0.177
26 | GUCUUCUUUCACGUGCGCGUGAAAGAGAGAAGUGAACCAGAGAAACACACGUUCUGGUAUAUUACCUGGUA [C4U G54C] | 0.364

Row | Variant | self-cleavage
27 | GUCUUCUUUCACGUGCGCGUGAAAGAGAGAAGUGAACCAGAGAAACACACGUUAUGGUAUAUUACCUGGUA [C4U G54A] | 0.166
28 | GUCUUCUUUCACGUGCGCGUGAAAGAGAGAAGUGAACCACAGAAACACACGUUGUGGUAUAUUACCUGGUA [C4U G40C] | 0.13
29 | GUCUUCUUUCACGUGCGCGUCAAAGAGAGAAGUGAACCAGAGAAACACACGUUGUGGUAUAUUACCUGGUA [C4U G21C] | 0.328
30 | GUCUUCUUUCACGUGCGCGUUAAAGAGAGAAGUGAACCAGAGAAACACACGUUGUGGUAUAUUACCUGGUA [C4U G21U] | 0.222
31 | GUCCACUUUCACGUGCGCGUGAAAGAGAGAAGUGAACCAGAGAAGCACACGUUGUGGUAUAUUACCUGGUA [U5A A45G] | 0.0727
32 | GUCCACUUUCACGUGCGCGUGAAAGAGAGAAGUGAACCAGAGAAUCACACGUUGUGGUAUAUUACCUGGUA [U5A A45U] | 0.141
33 | GUCCACUUUCACGUGCGCGUGAAAGAGAGAAGUGAACCAGAGAAACACACGUUGUGGUAUAUUCCCUGGUA [U5A A64C] | 0.151
34 | GUCCACUUUCACGUGCGCGUGAAAGAGAGAUGUGAACCAGAGAAACACACGUUGUGGUAUAUUACCUGGUA [U5A A31U] | 0.14
35 | GUCUUCUUUCACGUGUGCGUGAAAGAGAGAAGUGAACCAGAGAAACACACGUUGUGGUAUAUUACCUGGUA [C4U C16U] | 0.362
36 | GUCUUCUUUCACGUGCGCGUGAAAGAGAGAAGUGAACCAGAGAAACACACGUUGUGGUAUACUACCUGGUA [C4U U62C] | 0.16
37 | GUCUUCUUUCACGUGCGCGUGAAAGAGAGAAGUGAACCAGAGAAACACACGUUGUGGUAUAGUACCUGGUA [C4U U62G] | 0.181
38 | GUCCACUUUCACGUGCGCGUGAAGGAGAGAAGUGAACCAGAGAAACACACGUUGUGGUAUAUUACCUGGUA [U5A A24G] | 0.381
39 | GUCCACUUUCACGUGCGCGUGAACGAGAGAAGUGAACCAGAGAAACACACGUUGUGGUAUAUUACCUGGUA [U5A A24C] | 0.314
40 | GUCUUCUUUCACGUGCGCGUGAAAGAGAGAAGUGAACCAGAGAAACACACGUUGUGAUAUAUUACCUGGUA [C4U G57A] | 0.155
41 | GUCUUCUUUCACGUGCGCGUGAAAGAGAGAAGUGAACCAGAGAAACACACGUUGUGUUAUAUUACCUGGUA [C4U G57U] | 0.161
42 | GUCUUCUUUCACGUGCGCGUGAAAGAGAGAAGUGAACCAGAGAAACACACGUUGUGCUAUAUUACCUGGUA [C4U G57C] | 0.226
43 | GUCCACUUUCACGUGCGCGUGAAAGAGAGAAGUGAACCAGAGAAACACACGUUGUGGUAUAUUACCUGGUA [U5A] | 0.368
44 | GUCCACUUUCACGUGCGCGUGAAAGAGAGAAGUGAACCAGUGAAACACACGUUGUGGUAUAUUACCUGGUA [U5A A41U] | 0.818
45 | GUCCACUUUCACGUGCGCGUGAAAGAGAGAAGUGAACCAGAGAAACACUCGUUGUGGUAUAUUACCUGGUA [U5A A49U] | 0.0811
46 | GUCCACUUUCACGUGCGCGUGAAAGAGAGAAGUGAACCAGAGAAACACCCGUUGUGGUAUAUUACCUGGUA [U5A A49C] | 0.124
47 | GUCUUCUUUCACGUGCGCGUGAAAGAGAGAAGUGAACCAGAGAAACACACGUUGUGGUAUAUUACCUGGCA [C4U U70C] | 0.341
48 | GUCUUCUUUCACGUGCGCGUGAAAGAGAGAAGUGAACCAGAGAAACACACGUUGUGGUAUAUUACCUGGAA [C4U U70A] | 0.299
49 | GUCUUCAUUCACGUGCGCGUGAAAGAGAGAAGUGAACCAGAGAAACACACGUUGUGGUAUAUUACCUGGUA [C4U U7A] | 0.296
50 | GUCCACUUUCCCGUGCGCGUGAAAGAGAGAAGUGAACCAGAGAAACACACGUUGUGGUAUAUUACCUGGUA [U5A A11C] | 0.281
51 | GUCUUGUUUCACGUGCGCGUGAAAGAGAGAAGUGAACCAGAGAAACACACGUUGUGGUAUAUUACCUGGUA [C4U C6G] | 0.0904
52 | GUCUUAUUUCACGUGCGCGUGAAAGAGAGAAGUGAACCAGAGAAACACACGUUGUGGUAUAUUACCUGGUA [C4U C6A] | 0.0821

Row | Variant | self-cleavage
53 | GUCUUUUUUCACGUGCGCGUGAAAGAGAGAAGUGAACCAGAGAAACACACGUUGUGGUAUAUUACCUGGUA [C4U C6U] | 0.192
54 | GUCUUCUUUCACGUGCGCGUGAAAGAGAGAAGUGAACCAGAAAAACACACGUUGUGGUAUAUUACCUGGUA [C4U G42A] | 0.27
55 | GUCUUCUUUCACGUGCGCGUGAAAGAGAGAAGAGAACCAGAGAAACACACGUUGUGGUAUAUUACCUGGUA [C4U U33A] | 0.283
56 | GUCUUCUUUCACGUGCGCGUGAAAGAGAGAAGGGAACCAGAGAAACACACGUUGUGGUAUAUUACCUGGUA [C4U U33G] | 0.0889
57 | GUCUUCUUUCACGUGCGCGUGAAAGAGAGAAGUGAACCAGAGAAACACACGUUGUGGUAUAUUACCAGGUA [C4U U67A] | 0.121
58 | GUCUUCUUUCACGUGCGCGUGAAAGAGAGAAGUGAACCAGAGAAACACACGUUGUGGUAUAUUACCUGUUA [C4U G69U] | 0.177
59 | GUCCACUUUCACGUGCGCGUGAAAGAGAGAAGUGAACCAGAGAAACACACGUUGUGGUAUCUUACCUGGUA [U5A A61C] | 0.088
60 | GUCUUCUUUCACGUGCGCGUGAAAGAGAGAAGUGAACCAGAGAAACACACGUUGUGGUAAAUUACCUGGUA [C4U U60A] | 0.199
61 | GUCUUCUUUCACGUGCGCGUGAAAGAGAGAAGUGAACCAGAGAAACACACGUUGUGGUACAUUACCUGGUA [C4U U60C] | 0.48
62 | GUCCACUUUCACGUGCGCGUGAAAGAGAGAAGUGAACCAGAGGAACACACGUUGUGGUAUAUUACCUGGUA [U5A A43G] | 0.0784
63 | GUCCACUUUCACGUGCGCGUGAAAGAGAGAAGUGAACCAGAGCAACACACGUUGUGGUAUAUUACCUGGUA [U5A A43C] | 0.113
64 | GUCUUCUUUCACGUGCGCGUGAAAGAGAGAAGUGAACCAGAGAAACACACGUUGUGGUAUAUUAUCUGGUA [C4U C65U] | 0.175
65 | GUCUUCUUUCACGUGCGCGUGAAAGAGAGAAGUGAACCAGAGAAACACACGUGGUGGUAUAUUACCUGGUA [C4U U53G] | 0.412
66 | GUCUUCUUUCAUGUGCGCGUGAAAGAGAGAAGUGAACCAGAGAAACACACGUUGUGGUAUAUUACCUGGUA [C4U C12U] | 0.357
67 | GUCCACUUUCACGUGCGCGUGAAAGAGAGAAGUGAACCAGAGAAACACACGUUGUGGUUUAUUACCUGGUA [U5A A59U] | 0.153
68 | GUCUUCUUUCACGUGCGCGUGAAAGAUAGAAGUGAACCAGAGAAACACACGUUGUGGUAUAUUACCUGGUA [C4U G27U] | 0.118
69 | GUCUUCUUUCACGUGCGCGUGAAAGACAGAAGUGAACCAGAGAAACACACGUUGUGGUAUAUUACCUGGUA [C4U G27C] | 0.229
70 | GUCUUCUUUCACGUGCGCGUGAAAGAGAGAAGUGAACCAGAGAAACACACGUUGUGGAAUAUUACCUGGUA [C4U U58A] | 0.172
71 | GUCUUCUGUCACGUGCGCGUGAAAGAGAGAAGUGAACCAGAGAAACACACGUUGUGGUAUAUUACCUGGUA [C4U U8G] | 0.204
72 | GUCUUCUUUCACGUGCGCGUGAAAGAGAGAAGUGAACCAGAGAAACACACGUUGUGGUAUAUUACCUGGUG [C4U A71G] | 0.426
73 | GUCUUCUUUCACGUGCGAGUGAAAGAGAGAAGUGAACCAGAGAAACACACGUUGUGGUAUAUUACCUGGUA [C4U C18A] | 0.4
74 | GUCUUCUUUCACGUGCGCGUGAAAGAGAGAAGUGAACCAGAGAAACACACGUUGUAGUAUAUUACCUGGUA [C4U G56A] | 0.161
75 | GUCUUCUUUCACGUGCGCGUGAAAGAGAGAAGUGAACCAGAGAAACACAUGUUGUGGUAUAUUACCUGGUA [C4U C50U] | 0.213
76 | GUCUUCUUUCACGUGCGCGUGAAAGAGAGAAGUGAACCAGAGAAACACAAGUUGUGGUAUAUUACCUGGUA [C4U C50A] | 0.203
